The source of these data is patent EP1980246A1.

For test [1], the target named is purified porcine TGF-β1 (Peninsula) (porcine) (UniProt P07200). The test can be described thus: active TGF-β ELISA, R2X capture, TGF-β titrated in TBS, BDA47 detection; ΔA50%.
Test [2] has as its target recombinant human TGF-β1 (human) (UniProt P01137). The description is as above.

recombinant human TGF-β1 (human), sequence (P01137 279-390 limits assumed): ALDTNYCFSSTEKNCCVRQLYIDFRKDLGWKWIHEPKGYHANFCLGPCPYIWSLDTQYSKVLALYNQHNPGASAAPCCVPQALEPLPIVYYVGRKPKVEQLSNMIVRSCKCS
purified porcine TGF-β1 (Peninsula) (porcine), sequence (P07200 279-390 limits assumed): as the sequence (P01137 279-390 limits assumed) above

The term EC50 denotes the concentration at which the effect is half-maximal. “truncated extracellular domain of the type II TGF-beta receptor fused to glutathione-S-transferase (R2X) (from UniProt P08515 1-218; P37173 23-166)”: the EC50 in test [1] stood at 680 pM; in test [2], 720 pM.
